Each block holds one binder with its values, some of them ahead of it. [ ]: non-standard residue; d: D form. The star is where a group is joined. dPhe(4-NO2) = N[C@H](Cc1ccc([N+](=O)[O-])cc1)C(=O)O; 2Nal = N[C@@H](Cc1ccc2ccccc2c1)C(=O)O; Benzenesulfonyl = O=S(=O)(c1ccccc1)*; d2Thi = N[C@H](Cc1cccs1)C(=O)O; PyrProp = pyridinepropionyl; Nle = CCCC[C@H](N)C(=O)O
Molecular target: melanocortin-1 receptor (MC-1r) on murine melanocytes (line S91 Cloudman) (murine, UniProt Q01727 1-315)
Experiment: cell-based or functional assay

Sequence of melanocortin-1 receptor (MC-1r) on murine melanocytes (line S91 Cloudman) (Q01727 whole entry): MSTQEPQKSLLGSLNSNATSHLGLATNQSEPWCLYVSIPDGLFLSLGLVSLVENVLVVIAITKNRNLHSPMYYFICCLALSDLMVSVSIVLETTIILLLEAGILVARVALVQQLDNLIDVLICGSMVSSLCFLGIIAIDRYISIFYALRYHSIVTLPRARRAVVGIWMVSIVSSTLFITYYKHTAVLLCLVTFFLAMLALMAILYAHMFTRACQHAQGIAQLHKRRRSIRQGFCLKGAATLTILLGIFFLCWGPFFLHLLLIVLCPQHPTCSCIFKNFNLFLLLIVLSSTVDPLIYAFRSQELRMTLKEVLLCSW

- cAMP production (as % of α-MSH): 50 % of α-MSH
B1: Compound No. 12 in the Table, Ac-Nle-Ala-His-L2,Nap-Lys-Trp-NH2 (peptide)
peptide: Ac-[Nle]AH[2Nal]KW-NH2
SMILES: CCCC[C@H](NC(C)=O)C(=O)N[C@@H](C)C(=O)N[C@@H](Cc1c[nH]cn1)C(=O)N[C@@H](Cc1ccc2ccccc2c1)C(=O)N[C@@H](CCCCN)C(=O)N[C@@H](Cc1c[nH]c2ccccc12)C(N)=O

- cAMP production (as % of α-MSH): 100 % of α-MSH
B6: alpha-MSH (Melanocyte Stimulating Hormone), Acetyl-Ser-Tyr-Ser-Met-Glu-His-Phe-Arg-Trp-Gly-Lys-Pro-Val-NH2 (peptide)
peptide: Ac-SYSMEHFRWGKPV-NH2

The next lines start with the binder.

B2: Compound No. 8 in the Table, BzlSO2-Nle-Ala-His-DThi-Lys-Trp-NH2 (peptide)
peptide: Benzenesulfonyl-[Nle]AH[d2Thi]KW-NH2
SMILES: CCCC[C@H](NS(=O)(=O)c1ccccc1)C(=O)N[C@@H](C)C(=O)N[C@@H](Cc1c[nH]cn1)C(=O)N[C@H](Cc1cccs1)C(=O)N[C@@H](CCCCN)C(=O)N[C@@H](Cc1c[nH]c2ccccc12)C(N)=O
- cAMP production (as % of α-MSH): 65 % of α-MSH

B3: Compound No. 9 in the Table, Ac-Nle-Ala-His-DThi-Lys-Trp-NH2 (peptide)
peptide: Ac-[Nle]AH[d2Thi]KW-NH2
SMILES: CCCC[C@H](NC(C)=O)C(=O)N[C@@H](C)C(=O)N[C@@H](Cc1c[nH]cn1)C(=O)N[C@H](Cc1cccs1)C(=O)N[C@@H](CCCCN)C(=O)N[C@@H](Cc1c[nH]c2ccccc12)C(N)=O
- cAMP production (as % of α-MSH): 75 % of α-MSH

B4: Compound No. 10 in the Table, PyrProp-Nle-Ala-His-DpNO2Phe-Lys-Trp-NH2 (peptide)
peptide: PyrProp-[Nle]AH[dPhe(4-NO2)]KW-NH2
- cAMP production (as % of α-MSH): 115 % of α-MSH

B5: Compound No. 7 in the Table, BzlSO2-Nle-Ala-His-DpNO2Phe-Lys-Trp-NH2 (peptide)
peptide: Benzenesulfonyl-[Nle]AH[dPhe(4-NO2)]KW-NH2
SMILES: CCCC[C@H](NS(=O)(=O)c1ccccc1)C(=O)N[C@@H](C)C(=O)N[C@@H](Cc1c[nH]cn1)C(=O)N[C@H](Cc1ccc([N+](=O)[O-])cc1)C(=O)N[C@@H](CCCCN)C(=O)N[C@@H](Cc1c[nH]c2ccccc12)C(N)=O
- cAMP production (as % of α-MSH): 100 % of α-MSH
